In the DeepSol protein solubility set:

Experiment: soluble on expression in E. coli; label from the status in PepcDB or PDB records

Sequence	soluble on expression in E. coli
MFKRLLMVALLVVAPLANAADQTNPYRLMNEAAEKTFNRLKSEQPKIKQSPDYLRTVVREELLPYVQVRYAGALVLGRYYKDSTPAQRDAYFKAFEAYLEQAYGQALAMYNGQNYQIAPEQPLGNADIVSIRVTIVDNGGRPPVRLDFQWRKNSKTGNWQAYDMIAEGVSMITTKQNEWASILRQKGVDGLTQQLESSAKQTITLDQKKLEHHHHHH	soluble
ASGFAGHLSVGFSPVVGPVVLPESIRRFRAAYPDVLVSVIEASIDLLLPGLRNGDFDIVVGRLEEVAMPEDVRCETLYDEPVCLVAGRAHPLAGRRRISWEDAQAYPWISPQQGTPLRMRLEMELAVAGQPLPRHAVESTSVQTNVALLDRS	not soluble
MPLSPYLSFAGNCADAIAYYQQTLGAELLYKLSFGEMPPSAADNEEGCPSGMRFPDTAIAHANMRIAGSDIMMSDASASGRAHYSGFTLVLDTQDVAEGKRWFDNLAAQGQIEMDWQETFWAQGFGKVSDRFGVPWMINVVKHQPAT	not soluble
SGLRDWLRTVCCCCGCECLEERALPEKEPLVSDNNPYSSFGATLVRDDEKNLWSMPHDVSHTEADDDRTLYNLIVIRNQQAKDSEEWQKLNYDIHTLRQVRREVRNRWKCILEDLGFQKEADSLLSVTKLSTISDSKNTRKAREMLLKLAEETNIFPTSWELSERYLFVVDRLIALDAAEEFFKLARRTYPKKPGVPCLADGQKELHYLPFPSP	soluble
MAQLYYKYGTMNSGKTIEILKVAHNYEEQGKPVVIMTSALDTRDGFGIVSSRIGMRREAIPISNDMDIFTFIAQLEEKPYCVLIDESQFLSKQNVYDLARVVDELNVPVMAFGLKNDFQNNLFEGSKHLLLLADKIDEIKTICQYCSKKATMVLRTENGKPVYEGDQIQIGGNETYIPVCRKHYFNPDI	not soluble
MATVNKQAIAAAFGRAAAHYEQHADLQRQSADALLAMLPQRKYTHVLDAGCGPGWMSRHWRERHAQVTALDLSPPMLVQARQKDAADHYLAGDIESLPLATATFDLAWSNLAVQWCGNLSTALRELYRVVRPKGVVAFTTLVQGSLPELHQAWQAVDERPHANRFLPPDEIEQSLNGVHYQHHIQPITLWFDDALSAMRSLKGIGATHLHEGRDPRILTRSQLQRLQLAWPQQQGRYPLTYHLFLGVIARE	not soluble
MNVTSVTSEDGVKEFEKIVVEPEDIEYVEIPADAKNVDLTRHRIKEIGDYSWLTHVEHFSFRWNLIKKIENLDCLTTLTHLEFYDNQITKVENLDSLVNLESLDLSFNRITKIENLEKLTKLKTLFFVHNKITKIEGLDTLTELEYLELGDNRIAKIENLDNNLKLDRLFLGANQIRLIENVDHLKKLTVLSLPANAITVVDNISGLHNLKEIYLAQNGIKYVCGIDEHLPLEILDFNQNRLEKVENIHQLKTLTDFWARGNKLDNWSIMDELVELPQLNSVYLDFNPIASVDTYRGKVIHLLQQITRLDGTQCREHSMLRPPKEEKNETELSRVVLDNPSDDHPTESV	not soluble
MGSDKIHHHHHHMAKKKVIFECMACGYQSPKWMGKCPNCGAWNQMEEIVEKAANPKHGVKTKELAGKVQKLNSIKHETTPRVLTDSAEFNRVLGGGIVSGSLVLIGGDPGIGKSTLLLQICASLSQKKKVLYITGEESLSQTKLRAERLDEDSSELQVLAETDLEVIYQTVKEEQPDLLVVDSIQTIYHPEISSAPGSVSQVRESTQSLMNIAKQMNIATFIVGHVTKEGQIAGPRLLEHMVDTVLYFEGDEHHAYRILRAVKNRFGSTNEMGIFEMKQSGLKGVNNPSEMFLEERSTNVPGSTIVATMEGTRPLLIEVQALVTPTTFNNPRRMATGIDHNRLSLLMAVLEKKENYLLQQQDAYIKVAGGVKLTEPAVDLSVIVATASSFKDKAVDGLDCYIGEVGLTGEVRRVSRIEQRVQEAAKLGFKRVIIPKNNIGGWTYPEGIQVIGVTTVHEALSFALHS	not soluble
MLTLLMCGGKGTRLGRGEKPLFEVCGMKLIDHSLLQYKDFDVIAITSPHTPATESYLAEKGVEVYRAAGKGYIEDYSEACRELAINEPVIVASADIVYIRDIAFDIVDAYMKTIKPALTVVMEGEPVGVNIIDSLLINTWQEEEIYSIEKDSVVNVNTVADVERAERLWTTMRKERGWQRDLEHHHHHH	soluble
MGSDKIHHHHHHMFQYFPTNYVWSLSAMIALTHGGQIGEVDQMCAPLVDAARAGNDPGTLAFFNAWKSGADKLAELAEEDKSGGRLLSAGEKLGRAALYYIIAERMQAHDFDGRLALYKHSLDVFLEGVRLARENCERIEIPYQDRHISGLYVRAVGVQGRAPVVVVMNGLDSTKEMLYRSCITSYLSRRGVAVLLVDQPGTGEALRLQKLHAIPQTEIWASKIVDYLQARTDIDPVRIGALGVSLGGYYAPRAVAFEPRFAAGAVWGANHDWREVQKRRLAREGENPVPHYWKHVEWVFGASDLDDFMQCAEAMHLNGVLDRIKVPFLVTHGENDRQIPVQYAHQTYEQLANSPRRELKIFTAREGGVEHSSLDNPTNAGSYIADWLAEQLHGTTA	not soluble
MGSDKIHHHHHHMRIILASSSPRRRQLMELLGIEFEVEKPDVEEEFLESPEETVRELSLRKAEWVFKKRKEEEILVIGSDTVVVLDGNILGKPESLEEAKGMLKKLSGKWHVVYTGVAFVSSETKDVIVSSTKVRFRELPESVIDYYVEKYRPLDKAGAYGIQDFAAVFVEKIEGDFFTVVGFPLGMVWQYLYEKGWWKVASKREDDKGGARVAFG	not soluble
MSETPEYGVLSWWDYGNWIVYVGKRPAVSNNFQTGVEDSANFLLTDSEEEAKTIVEKLKVKYVMTDTLMAEGKFSSITSLAGKEIGEYYEVETVKGDTGLRTVATPKQALLQTQVYKLHKLDGTSLGHFRLVHESAVNSTDDGNSKENTVKVFEYVKGATLSGTLEHHHHHH	not soluble
MYFKMITSAPWVLYPEIGEDPSKKWIFREPKISDGDGIYSLIADCPPLDMNSSYCNFLQSTHFSKTSILVEHKGDIAGFISGYQKPDEQDVLFIWQVAVSPRFRGNGLAFRMLKELLEREALSEVKSVETTITEDNQASWALFKKLDAMNGNHGQVSTFLDEKAHFKGKHDTEFLYRIPLK	not soluble
MGSDKIHHHHHHMMTAHAIGTREEWLAARLDLLEAEKNLTRRSDELAKWRRELPWVRIDKAYRFETDEGEASLRDLFKGRSQLLVYHFMFGPDYTAGCPSCSAIADGFNGIVAHLENHDVAFSAVSRAPLAKLTAYKRRLGWSFPWASSDDGAFNRDFCVWFTEQQQREGGIEYNFRREPPIPEQPASEPLAGRTVREWDASGSEGPVAQIAAMTGTDVATYTRDRPGVSAFALEDGIVYHTYSSYARGLDGLWGMYQWLDRTPKGRNENGIWWRRHDEYAQG	not soluble
MGSDKIHHHHHHMSTPTRIITSKDIETGKHISPAQRLRIMNADEWEEFIEEWTDSLKKEYFKVERLGGAGDKGRDIVAQLENAEIWDNYQCKHYGHSLRPSDIWTEIGKLVYYTAIGDFTCPRKYFFIAPLGVGTSLSDLLKNPRKLVQGLRENWDKYCKDKITQNCLIKLSDMEPQLEKIDFSIFGYVTPLTIIEQHRKTPHFITRFGGGLPKREIPPEPPIKSTSEESEYLKKILQAYSDFNKQDISTIDDVTDIDLTEHYKDSRIQFYSAEALKRFSRDALPENEFKLLQQEFLNGIKDEIRNPVHANGYLRLLEVVKVARALQITSHALIDCLMVNDRGGICHQLANDNESIAWAKNG	not soluble
MSTAFAIPLFQFSPKPLHWKKRIAMWKAEIMDIKTTETGSRGEYSATIDGHKAQMTYSRTSPSLIIIDHTGVPDALRGKGVGQALAAHAIDEARKGGWKIIPLCPFFKAQTLRHADWADVIQGLEHHHHHH	soluble
MAQMYFYYSAMNAGKSTTLLQSAFNYQERGMNPLIFTAAIDDRFGVGKVSSRIGLEAEAHLFHADTDLLHVIATLHEAEPRHCILMDECQFLSKEQVYQLTEVVDKLDIPVLCYGLRTDFLGELFEGSKYLLSWADKLIELKTICHCGRKANMVIRTDEHGNAISEGDQVAIGGNDKYVSVCRQHYKEALGR	not soluble
CHETTTVALPESIGVGKGTTTLEDFENADAIFIIGQNPGSNSPRMMSELHAAAKRGASIISFNPLREKALVRFASPQDPRDMLSLHGVEISSQYHQVRIGGDMIALQGVCKAVIEADDVARREHLPRVLDVAFIEEHTHGFEQYADYCRQLPWDLIESHSGLTRQAIEDVAAVYRRSERVICCWGMGVTQHKRGGDAVQQIINLLLLRGNIGKLGAGACPVRGHSNVQGDRTMGIYEKAGEPFLASMSKVFGFEA	not soluble
GMSSKEEILSILEAFASTERMGSFFLDNATADFLFIRPSGNPLDAKGFENMWSSGDLVLESAEITKVHKFELLGSNAAICVFTLGSKFTYKGTQNDDLPTVTSIFKKIDEKWKVAWMQRSSGQSDMTLWNE	soluble
MSLKILLMLLCVSVLGCSKNSVESEKPVDVLLIGGGIMSATLGTYLNELEPGWTIEMVERLDKVAEESSNGWNNAGTGHSAFCELNYTSEAADGSMDISKAVAINENFEISKQFWAYQVDRKVLNDPKSFINNVPHMSFVWGDDNVAFLKKRHAALQHSSLFRGMEYSEDPEQIKQWVPLVMEGREPGQKIAATRMSIGTDVNFGEITRQLVGSLSAKDTFKLRLQHEVRDLKRNDDNTWTVTMADLANGDKETSVKARFVFIGAGGGALKLLQMSGIPEAEGYAGFPVGGSFLATTNPDVVKRHLAKVYGKASVGSPPMSVPHLDTRMIDGKPVLLFGPFATFSTKFLKNGSLWDLPGSVTSGNIGPMFNAGIDNFDLSQYLIGQLMLSQDDRMASLREYFPEARDEDWKLVQAGQRVQIIKKDAEKGGVLQFGTEVVTAADGSVAALLGASPGASTAAPIMLSVLEKAFKDKVATPEWQARLKEIVPSYGRKLNNDIELTNSTRAWSSERLQLIHVPVQEGGSHHHHHH	soluble
MGSDKIHHHHHHMTKDYVIEMRNITKIFGEFVANDHINLNVRRGEIHALLGENGAGKSTLMNMLAGLLEPTSGEIVINGQSVKIDSPSKAAQLGIGMVHQHFMLVDAFTVAENIILGSETTKGGVIDLKKAIAEIKELSAKYGLEVDPTAKVADISVGAQQRVEILKTLYRGADLLIFDEPTAVLTPAEIAELLKIMKALVEEGKSIILITHKLDEIRAVADSVTVIRRGKSIETVAVEGATNQDLAEWMVGRSVSFKTEKVEASPKEVILSIKDLVVNENRGIPAVKGLSLDVRAGEVVGIAGIDGNGQSELIQAITGLRKVKSGSITIKGEEVVGKTPRKITEMQVSHVPEDRHRDGLVLPMTVAENFALQTYYKEPISKNGILNYNIINEKARALMEEFDVRGASELVPIKALSGGNQQKAIIAREIDRNPDLFIVSQPTRGLDVGAIEYIRKRLIAERDKGKAVLVVSFELDEILDVSDRIAVIHDGVIHGIVEPAKTNKQELGVLMAGGHIEKGEEHA	not soluble
